B1: Protein canopy homolog 2 (Mus musculus), Q9QXT0 (parent)
chain: MKGWGWLALLLGVLLGTAWARRSQDLHCGACRALVDELEWEIARVDPKKTIQMGSFRINPDGSQSVVEVPYARSEAHLTELLEEVCDRMKEYGEQIDPSTHRKNYVRVVSRNGESSELDLQGIRIDSDISGTLKFACESIVEEYEDELIEFFSREADNVKDKLCSKRTDLCDHALHRSHDEL
partner: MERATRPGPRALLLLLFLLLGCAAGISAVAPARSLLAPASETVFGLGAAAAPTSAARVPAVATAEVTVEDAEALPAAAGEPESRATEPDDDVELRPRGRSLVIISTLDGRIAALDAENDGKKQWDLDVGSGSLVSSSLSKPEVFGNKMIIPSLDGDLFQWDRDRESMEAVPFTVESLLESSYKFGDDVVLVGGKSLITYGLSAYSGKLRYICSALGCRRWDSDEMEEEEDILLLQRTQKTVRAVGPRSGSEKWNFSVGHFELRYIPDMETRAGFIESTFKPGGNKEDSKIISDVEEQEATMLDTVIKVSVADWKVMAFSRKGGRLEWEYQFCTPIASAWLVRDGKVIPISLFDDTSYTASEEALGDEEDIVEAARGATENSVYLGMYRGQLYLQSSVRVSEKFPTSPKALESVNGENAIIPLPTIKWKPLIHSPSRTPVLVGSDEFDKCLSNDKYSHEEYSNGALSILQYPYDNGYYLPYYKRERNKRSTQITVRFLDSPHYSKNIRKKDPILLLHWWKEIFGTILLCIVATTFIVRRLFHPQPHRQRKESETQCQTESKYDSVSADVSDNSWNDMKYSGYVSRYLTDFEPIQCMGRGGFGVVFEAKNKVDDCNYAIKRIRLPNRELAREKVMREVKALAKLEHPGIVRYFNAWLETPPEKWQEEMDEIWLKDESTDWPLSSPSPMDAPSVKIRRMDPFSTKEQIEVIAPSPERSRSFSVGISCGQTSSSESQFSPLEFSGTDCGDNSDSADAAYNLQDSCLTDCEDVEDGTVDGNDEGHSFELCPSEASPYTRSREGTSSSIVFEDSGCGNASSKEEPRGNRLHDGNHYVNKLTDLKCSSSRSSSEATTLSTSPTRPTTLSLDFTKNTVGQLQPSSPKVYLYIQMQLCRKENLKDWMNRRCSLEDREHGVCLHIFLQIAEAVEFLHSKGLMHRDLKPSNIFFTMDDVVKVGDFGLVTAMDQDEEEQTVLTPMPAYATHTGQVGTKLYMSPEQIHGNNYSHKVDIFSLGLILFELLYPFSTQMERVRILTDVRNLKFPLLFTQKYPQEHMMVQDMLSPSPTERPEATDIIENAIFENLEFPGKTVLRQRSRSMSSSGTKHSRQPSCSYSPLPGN

Variants of: B1
Conditions: with Eif2ak3, Q9Z2B5

With C28A;C31A;C86A as the variant, how does the “effect of a mutation on the interaction” value read?
Its value is “increasing interaction”.

Variants of: B1
Conditions: with Eif2ak3, Q9Z2B5
Remark: another data set of the same source

For C28A;C31A;C86A;C137A;C164A;C171A, which “effect of a mutation on the interaction” value is on record?
Its value is “disrupting interaction”.

From IntAct's records for PubMed 28869608
